Test results as given in patent US20140274782A1, “AFFINITY REAGENTS AND METHODS FOR DETECTION, PURIFICATION, AND PROTEOMIC ANALYSIS OF METHYLATED PROTEINS” (The Board of Trustees of the Leland Stanford Junior …, priority 2013, published 2014).

How the values were obtained:
3×MBT domain of L3MBTL1 = test: Triple SILAC pull-down, 3xMBT/3xMBTD355N ratio (cytoplasmic, nuclear and chromatin fractions of 293T cells); type: binding, human; conditions: SILAC ratio;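 note: proteins quantified with MaxQuant, requiring at least two unique peptides and quantification in both label directions, normalized to the mean of proteins from a digested loading control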
G9a and GLP [1] = target: T1, G9a and GLP (Homo sapiens, UniProt Q96KQ7+Q9H9B1); test: Triple SILAC pull-down after UNC0638 treatment of 293T cells, DMSO/UNC0638 ratio of protein captured by 3×MBT; type: cell-based; design: cells were treated for 24 hours with UNC0638 at 2.5 μM or DMSO vehicle control; endogenous in cells; host or cells: HEK 293T;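 note: mass spectrometry (Q-Exactive) SILAC quantitation, DMSO/UNC0638 ratio computed after subtracting 3×MBTD355N mutant pull-down background, only proteins with at least twofold 3×MBT over mutant signal considered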
T1 sequence (Q96KQ7 2-1210 limits assumed): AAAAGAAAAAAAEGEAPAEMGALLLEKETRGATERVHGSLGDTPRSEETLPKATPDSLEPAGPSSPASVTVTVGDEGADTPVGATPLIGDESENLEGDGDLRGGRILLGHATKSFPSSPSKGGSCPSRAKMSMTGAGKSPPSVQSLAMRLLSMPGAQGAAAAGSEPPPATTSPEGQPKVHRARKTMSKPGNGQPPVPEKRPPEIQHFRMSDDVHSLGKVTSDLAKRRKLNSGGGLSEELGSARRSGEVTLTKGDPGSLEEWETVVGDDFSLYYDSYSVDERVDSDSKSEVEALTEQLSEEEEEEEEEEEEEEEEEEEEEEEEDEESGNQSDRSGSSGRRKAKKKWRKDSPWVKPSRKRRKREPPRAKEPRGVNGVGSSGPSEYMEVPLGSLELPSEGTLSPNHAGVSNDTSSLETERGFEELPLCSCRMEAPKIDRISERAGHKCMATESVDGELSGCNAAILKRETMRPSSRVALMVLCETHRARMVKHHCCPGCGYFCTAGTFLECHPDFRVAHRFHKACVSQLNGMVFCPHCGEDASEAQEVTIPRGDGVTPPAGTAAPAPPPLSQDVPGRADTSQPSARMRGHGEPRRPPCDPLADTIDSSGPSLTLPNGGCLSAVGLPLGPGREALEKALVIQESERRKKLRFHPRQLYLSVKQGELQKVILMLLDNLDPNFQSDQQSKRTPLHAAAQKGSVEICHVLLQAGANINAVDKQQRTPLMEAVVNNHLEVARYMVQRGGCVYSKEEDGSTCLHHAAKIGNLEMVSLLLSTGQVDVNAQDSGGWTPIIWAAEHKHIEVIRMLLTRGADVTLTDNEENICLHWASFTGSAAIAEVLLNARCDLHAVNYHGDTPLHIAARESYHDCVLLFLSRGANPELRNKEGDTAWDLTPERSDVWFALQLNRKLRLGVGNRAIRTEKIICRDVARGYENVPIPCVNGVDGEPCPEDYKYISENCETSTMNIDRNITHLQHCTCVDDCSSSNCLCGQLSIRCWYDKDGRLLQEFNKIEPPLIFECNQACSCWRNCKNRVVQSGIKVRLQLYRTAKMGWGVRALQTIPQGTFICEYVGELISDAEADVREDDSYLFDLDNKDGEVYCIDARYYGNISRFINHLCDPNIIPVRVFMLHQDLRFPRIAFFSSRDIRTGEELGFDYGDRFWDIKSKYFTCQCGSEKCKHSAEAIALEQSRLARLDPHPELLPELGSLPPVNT
T1 sequence (Q9H9B1 2-1298 limits assumed): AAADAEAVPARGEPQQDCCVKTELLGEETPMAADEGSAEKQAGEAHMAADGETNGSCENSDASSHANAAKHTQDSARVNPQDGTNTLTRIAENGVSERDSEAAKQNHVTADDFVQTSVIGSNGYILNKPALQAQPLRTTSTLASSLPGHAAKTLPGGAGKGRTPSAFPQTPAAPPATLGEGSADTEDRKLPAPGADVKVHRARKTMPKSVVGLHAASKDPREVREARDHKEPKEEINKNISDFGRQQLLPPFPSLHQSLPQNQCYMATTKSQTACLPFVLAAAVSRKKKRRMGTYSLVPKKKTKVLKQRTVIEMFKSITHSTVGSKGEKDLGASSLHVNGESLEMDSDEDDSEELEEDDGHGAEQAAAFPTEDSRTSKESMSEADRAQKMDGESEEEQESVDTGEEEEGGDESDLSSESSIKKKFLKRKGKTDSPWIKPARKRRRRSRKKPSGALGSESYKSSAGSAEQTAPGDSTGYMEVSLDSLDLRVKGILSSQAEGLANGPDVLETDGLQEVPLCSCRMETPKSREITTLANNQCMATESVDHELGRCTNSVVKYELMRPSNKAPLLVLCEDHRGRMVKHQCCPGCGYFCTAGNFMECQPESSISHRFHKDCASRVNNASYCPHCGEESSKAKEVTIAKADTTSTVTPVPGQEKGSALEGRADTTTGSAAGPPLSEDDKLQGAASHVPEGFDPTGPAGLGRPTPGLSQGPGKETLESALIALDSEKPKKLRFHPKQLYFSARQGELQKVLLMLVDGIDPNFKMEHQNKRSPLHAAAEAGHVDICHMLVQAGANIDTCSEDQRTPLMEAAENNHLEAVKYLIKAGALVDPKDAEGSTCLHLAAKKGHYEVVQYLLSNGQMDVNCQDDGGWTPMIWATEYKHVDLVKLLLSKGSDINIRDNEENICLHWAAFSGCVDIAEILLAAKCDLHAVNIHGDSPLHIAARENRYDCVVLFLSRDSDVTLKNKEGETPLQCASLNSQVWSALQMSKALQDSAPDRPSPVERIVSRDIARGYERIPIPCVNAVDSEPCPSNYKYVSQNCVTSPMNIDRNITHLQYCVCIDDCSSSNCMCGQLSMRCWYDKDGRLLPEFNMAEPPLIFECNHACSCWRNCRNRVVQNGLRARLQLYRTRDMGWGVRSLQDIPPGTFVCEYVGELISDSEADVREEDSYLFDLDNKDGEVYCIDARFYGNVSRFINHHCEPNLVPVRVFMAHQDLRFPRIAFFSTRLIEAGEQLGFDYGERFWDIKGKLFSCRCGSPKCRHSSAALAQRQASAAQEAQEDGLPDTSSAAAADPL

G9a and GLP [2] = target: T1, G9a and GLP; test: as above; type: cell-based; design: endogenous in cells; host or cells: HEK 293T

B1: Splicing regulatory glutamine/lysine-rich protein 1 (protein, UniProt Q8N9Q2 1-155, looked up)
Protein SREK1IP1: MAVPGCNKDSVRAGCKKCGYPGHLTFECRNFLRVDPKRDIVLDVSSTSSEDSDEENEELNKLQALQEKRINEEEEKKKEKSKEKIKLKKKRKRSYSSSSTEEDTSKQKKQKYQKKEKKKEKKSKSKKGKHHKKEKKKRKKEKHSSTPNSSEFSRK
Protein Ratios 3xMBT/D355N (3×MBT domain of L3MBTL1; pull-down by 3xMBT vs 3xMBTD355N, 293T cells): 2.9 | Protein Ratios DMSO/UNC0638 (G9a and GLP [1]; SILAC ratio of protein captured by 3xMBT, 293T cells treated 24 hours with UNC0638 at 2.5 μM or DMSO): 4.4

B2: ACIN1: a known G9a substrate (protein, UniProt Q9UKV3 1-1341, looked up)
Apoptotic chromatin …: MWRRKHPRTSGGTRGVLSGNRGVEYGSGRGHLGTFEGRWRKLPKMPEAVGTDPSTSRKMAELEEVTLDGKPLQALRVTDLKAALEQRGLAKSGQKSALVKRLKGALMLENLQKHSTPHAAFQPNSQIGEEMSQNSFIKQYLEKQQELLRQRLEREAREAAELEEASAESEDEMIHPEGVASLLPPDFQSSLERPELELSRHSPRKSSSISEEKGDSDDEKPRKGERRSSRVRQARAAKLSEGSQPAEEEEDQETPSRNLRVRADRNLKTEEEEEEEEEEEEDDEEEEGDDEGQKSREAPILKEFKEEGEEIPRVKPEEMMDERPKTRSQEQEVLERGGRFTRSQEEARKSHLARQQQEKEMKTTSPLEEEEREIKSSQGLKEKSKSPSPPRLTEDRKKASLVALPEQTASEEETPPPLLTKEASSPPPHPQLHSEEEIEPMEGPAPAVLIQLSPPNTDADTRELLVSQHTVQLVGGLSPLSSPSDTKAESPAEKVPEESVLPLVQKSTLADYSAQKDLEPESDRSAQPLPLKIEELALAKGITEECLKQPSLEQKEGRRASHTLLPSHRLKQSADSSSSRSSSSSSSSSRSRSRSPDSSGSRSHSPLRSKQRDVAQARTHANPRGRPKMGSRSTSESRSRSRSRSRSASSNSRKSLSPGVSRDSSTSYTETKDPSSGQEVATPPVPQLQVCEPKERTSTSSSSVQARRLSQPESAEKHVTQRLQPERGSPKKCEAEEAEPPAATQPQTSETQTSHLPESERIHHTVEEKEEVTMDTSENRPENDVPEPPMPIADQVSNDDRPEGSVEDEEKKESSLPKSFKRKISVVSATKGVPAGNSDTEGGQPGRKRRWGASTATTQKKPSISITTESLKSLIPDIKPLAGQEAVVDLHADDSRISEDETERNGDDGTHDKGLKICRTVTQVVPAEGQENGQREEEEEEKEPEAEPPVPPQVSVEVALPPPAEHEVKKVTLGDTLTRRSISQQKSGVSITIDDPVRTAQVPSPPRGKISNIVHISNLVRPFTLGQLKELLGRTGTLVEEAFWIDKIKSHCFVTYSTVEEAVATRTALHGVKWPQSNPKFLCADYAEQDELDYHRGLLVDRPSETKTEEQGIPRPLHPPPPPPVQPPQHPRAEQREQERAVREQWAEREREMERRERTRSEREWDRDKVREGPRSRSRSRDRRRKERAKSKEKKSEKKEKAQEEPPAKLLDDLFRKTKAAPCIYWLPLTDSQIVQKEAERAERAKEREKRRKEQEEEEQKEREKEAERERNRQLEREKRREHSRERDRERERERERDRGDRDRDRERDRERGRERDRRDTKRHSRSRSRSTPVRDRGGRR
change in amount captured by 3×MBT following UNC0638 treatment (G9a and GLP [1]; 293T cells): decreased strongly

B3: XRN2 (protein, UniProt Q9H0D6 1-950, looked up)
5'-3' exoribonuclease 2: MGVPAFFRWLSRKYPSIIVNCVEEKPKECNGVKIPVDASKPNPNDVEFDNLYLDMNGIIHPCTHPEDKPAPKNEDEMMVAIFEYIDRLFSIVRPRRLLYMAIDGVAPRAKMNQQRSRRFRASKEGMEAAVEKQRVREEILAKGGFLPPEEIKERFDSNCITPGTEFMDNLAKCLRYYIADRLNNDPGWKNLTVILSDASAPGEGEHKIMDYIRRQRAQPNHDPNTHHCLCGADADLIMLGLATHEPNFTIIREEFKPNKPKPCGLCNQFGHEVKDCEGLPREKKGKHDELADSLPCAEGEFIFLRLNVLREYLERELTMASLPFTFDVERSIDDWVFMCFFVGNDFLPHLPSLEIRENAIDRLVNIYKNVVHKTGGYLTESGYVNLQRVQMIMLAVGEVEDSIFKKRKDDEDSFRRRQKEKRKRMKRDQPAFTPSGILTPHALGSRNSPGSQVASNPRQAAYEMRMQNNSSPSISPNTSFTSDGSPSPLGGIKRKAEDSDSEPEPEDNVRLWEAGWKQRYYKNKFDVDAADEKFRRKVVQSYVEGLCWVLRYYYQGCASWKWYYPFHYAPFASDFEGIADMPSDFEKGTKPFKPLEQLMGVFPAASGNFLPPSWRKLMSDPDSSIIDFYPEDFAIDLNGKKYAWQGVALLPFVDERRLRAALEEVYPDLTPEETRRNSLGGDVLFVGKHHPLHDFILELYQTGSTEPVEVPPELCHGIQGKFSLDEEAILPDQIVCSPVPMLRDLTQNTVVSINFKDPQFAEDYIFKAVMLPGARKPAAVLKPSDWEKSSNGRQWKPQLGFNRDRRPVHLDQAAFRTLGHVMPRGSGTGIYSNAAPPPVTYQGNLYRPLLRGQAQIPKLMSNMRPQDSWRGPPPLFQQQRFDRGVGAEPLLPWNRMLQTQNAAFQPNQYQMLAGPGGYPPRRDDRGGRQGYPREGRKYPLPPPSGRYNWN
3xMBT/D355N UNC Heavy (3×MBT domain of L3MBTL1; pull-down 3xMBT vs 3xMBTD355N, experiment with UNC0638 in heavy SILAC media): 2.19 log base 2 | 3xMBT/D355N UNC Light (3×MBT domain of L3MBTL1; pull-down 3xMBT vs 3xMBTD355N, experiment with UNC0638 in light SILAC media): 2.76 log base 2 | Relative to UNC0638 UNC Heavy (G9a and GLP [2]; SILAC ratio DMSO/UNC0638 of protein pulled down with 3xMBT, UNC0638 in heavy SILAC media): 0.34 log base 2 | Relative to UNC0638 UNC Light (G9a and GLP [2]; SILAC ratio DMSO/UNC0638 of protein pulled down with 3xMBT, UNC0638 in light SILAC media): 0.18 log base 2 | Relative to UNC0638 Average (G9a and GLP [2]; average of UNC Light and UNC Heavy experiments): 0.26 log base 2
